# B1: NIgG4E1A1(G4S)3 (Fc fusion)
# chain 1: DVQLQESGGGLVQAGGSLRLSCLASGRTFTTTSGYNMGWFRQAPGKEREFVAGIKWVSGSNRAYAESVKGRFTISRDNAKNTVYLQMNSLKPEDTAVYYCAAATGQSYVPIREYEYVYWGQGTQVTVSGGGGSGGGGSGGGGSGPPCPPCPAPEFLGGPSVFLFPPKPKDTLMISRTPEVTCVVVDVSQEDPEVQFNWYVDGVEVHNAKTKPREEQFNSTYRVVSVLTVLHQDWLNGKEYKCKVSNKGLPSSIEKTISKAKGQPREPQVYTLPPCQEEMTKNQVSLWCLVKGFYPSDIAVEWESNGQPENNYKTTPPVLDSDGSFFLYSRLTVDKSRWQEGNVFSCSVMHEALHNHYTQKSLSLSLGK
# chain 2: EVQLLESGGGLVQPGGSLRLSCAASGFTFGNYDMAWVRQAPGKRPEWVSSIDTGGDITHYADSVKGRFTISRDNAKNTLYLQMNSLRPEDTAVYWCATDEEYALGPNEFDYYGQGTLVTVSSGGGGSGGGGSGGGGSGPPCPPCPAPEFLGGPSVFLFPPKPKDTLMISRTPEVTCVVVDVSQEDPEVQFNWYVDGVEVHNAKTKPREEQFNSTYRVVSVLTVLHQDWLNGKEYKCKVSNKGLPSSIEKTISKAKGQPREPQVCTLPPSQEEMTKNQVSLSCAVKGFYPSDIAVEWESNGQPENNYKTTPPVLDSDGSFFLVSRLTVDKSRWQEGNVFSCSVMHEALHNHYTQKSLSLSLGK
# B2: CIgG4D2A1(G4S)1 (Fc fusion)
# chain 1: GPPCPPCPAPEFLGGPSVFLFPPKPKDTLMISRTPEVTCVVVDVSQEDPEVQFNWYVDGVEVHNAKTKPREEQFNSTYRVVSVLTVLHQDWLNGKEYKCKVSNKGLPSSIEKTISKAKGQPREPQVYTLPPCQEEMTKNQVSLWCLVKGFYPSDIAVEWESNGQPENNYKTTPPVLDSDGSFFLYSRLTVDKSRWQEGNVFSCSVMHEALHNHYTQKSLSLSLGKGGGGSDVQLQESGGGLVEAGGSLRLSCVASGRTFSGWSMGWFRQAPGKEREFVAAISWVGSWIGGTVYSNSVKGRFTISRDNARTTVYLQMNSLKPEDTAVYFCAAANSETPRIFASEYDYWGQGTQVTVS
# chain 2: GPPCPPCPAPEFLGGPSVFLFPPKPKDTLMISRTPEVTCVVVDVSQEDPEVQFNWYVDGVEVHNAKTKPREEQFNSTYRVVSVLTVLHQDWLNGKEYKCKVSNKGLPSSIEKTISKAKGQPREPQVCTLPPSQEEMTKNQVSLSCAVKGFYPSDIAVEWESNGQPENNYKTTPPVLDSDGSFFLVSRLTVDKSRWQEGNVFSCSVMHEALHNHYTQKSLSLSLGKGGGGSEVQLLESGGGLVQPGGSLRLSCAASGFTFGNYDMAWVRQAPGKRPEWVSSIDTGGDITHYADSVKGRFTISRDNAKNTLYLQMNSLRPEDTAVYWCATDEEYALGPNEFDYYGQGTLVTVSS
# B3: CIgG4E1A1(RS) (Fc fusion)
# chain 1: GPPCPPCPAPEFLGGPSVFLFPPKPKDTLMISRTPEVTCVVVDVSQEDPEVQFNWYVDGVEVHNAKTKPREEQFNSTYRVVSVLTVLHQDWLNGKEYKCKVSNKGLPSSIEKTISKAKGQPREPQVYTLPPCQEEMTKNQVSLWCLVKGFYPSDIAVEWESNGQPENNYKTTPPVLDSDGSFFLYSRLTVDKSRWQEGNVFSCSVMHEALHNHYTQKSLSLSLGKRSDVQLQESGGGLVQAGGSLRLSCLASGRTFTTTSGYNMGWFRQAPGKEREFVAGIKWVSGSNRAYAESVKGRFTISRDNAKNTVYLQMNSLKPEDTAVYYCAAATGQSYVPIREYEYVYWGQGTQVTVS
# chain 2: GPPCPPCPAPEFLGGPSVFLFPPKPKDTLMISRTPEVTCVVVDVSQEDPEVQFNWYVDGVEVHNAKTKPREEQFNSTYRVVSVLTVLHQDWLNGKEYKCKVSNKGLPSSIEKTISKAKGQPREPQVCTLPPSQEEMTKNQVSLSCAVKGFYPSDIAVEWESNGQPENNYKTTPPVLDSDGSFFLVSRLTVDKSRWQEGNVFSCSVMHEALHNHYTQKSLSLSLGKRSEVQLLESGGGLVQPGGSLRLSCAASGFTFGNYDMAWVRQAPGKRPEWVSSIDTGGDITHYADSVKGRFTISRDNAKNTLYLQMNSLRPEDTAVYWCATDEEYALGPNEFDYYGQGTLVTVSS
# B4: CIgG4D2A1(G4S)2 (Fc fusion)
# chain 1: GPPCPPCPAPEFLGGPSVFLFPPKPKDTLMISRTPEVTCVVVDVSQEDPEVQFNWYVDGVEVHNAKTKPREEQFNSTYRVVSVLTVLHQDWLNGKEYKCKVSNKGLPSSIEKTISKAKGQPREPQVYTLPPCQEEMTKNQVSLWCLVKGFYPSDIAVEWESNGQPENNYKTTPPVLDSDGSFFLYSRLTVDKSRWQEGNVFSCSVMHEALHNHYTQKSLSLSLGKGGGGSGGGGSDVQLQESGGGLVEAGGSLRLSCVASGRTFSGWSMGWFRQAPGKEREFVAAISWVGSWIGGTVYSNSVKGRFTISRDNARTTVYLQMNSLKPEDTAVYFCAAANSETPRIFASEYDYWGQGTQVTVS
# chain 2: GPPCPPCPAPEFLGGPSVFLFPPKPKDTLMISRTPEVTCVVVDVSQEDPEVQFNWYVDGVEVHNAKTKPREEQFNSTYRVVSVLTVLHQDWLNGKEYKCKVSNKGLPSSIEKTISKAKGQPREPQVCTLPPSQEEMTKNQVSLSCAVKGFYPSDIAVEWESNGQPENNYKTTPPVLDSDGSFFLVSRLTVDKSRWQEGNVFSCSVMHEALHNHYTQKSLSLSLGKGGGGSGGGGSEVQLLESGGGLVQPGGSLRLSCAASGFTFGNYDMAWVRQAPGKRPEWVSSIDTGGDITHYADSVKGRFTISRDNAKNTLYLQMNSLRPEDTAVYWCATDEEYALGPNEFDYYGQGTLVTVSS
# B5: CIgG4D2A1(G4S)3 (Fc fusion)
# chain 1: GPPCPPCPAPEFLGGPSVFLFPPKPKDTLMISRTPEVTCVVVDVSQEDPEVQFNWYVDGVEVHNAKTKPREEQFNSTYRVVSVLTVLHQDWLNGKEYKCKVSNKGLPSSIEKTISKAKGQPREPQVYTLPPCQEEMTKNQVSLWCLVKGFYPSDIAVEWESNGQPENNYKTTPPVLDSDGSFFLYSRLTVDKSRWQEGNVFSCSVMHEALHNHYTQKSLSLSLGKGGGGSGGGGSGGGGSDVQLQESGGGLVEAGGSLRLSCVASGRTFSGWSMGWFRQAPGKEREFVAAISWVGSWIGGTVYSNSVKGRFTISRDNARTTVYLQMNSLKPEDTAVYFCAAANSETPRIFASEYDYWGQGTQVTVS
# chain 2: GPPCPPCPAPEFLGGPSVFLFPPKPKDTLMISRTPEVTCVVVDVSQEDPEVQFNWYVDGVEVHNAKTKPREEQFNSTYRVVSVLTVLHQDWLNGKEYKCKVSNKGLPSSIEKTISKAKGQPREPQVCTLPPSQEEMTKNQVSLSCAVKGFYPSDIAVEWESNGQPENNYKTTPPVLDSDGSFFLVSRLTVDKSRWQEGNVFSCSVMHEALHNHYTQKSLSLSLGKGGGGSGGGGSGGGGSEVQLLESGGGLVQPGGSLRLSCAASGFTFGNYDMAWVRQAPGKRPEWVSSIDTGGDITHYADSVKGRFTISRDNAKNTLYLQMNSLRPEDTAVYWCATDEEYALGPNEFDYYGQGTLVTVSS
# B6: NIgG4E1A1(G4S)2 (Fc fusion)
# chain 1: DVQLQESGGGLVQAGGSLRLSCLASGRTFTTTSGYNMGWFRQAPGKEREFVAGIKWVSGSNRAYAESVKGRFTISRDNAKNTVYLQMNSLKPEDTAVYYCAAATGQSYVPIREYEYVYWGQGTQVTVSGGGGSGGGGSGPPCPPCPAPEFLGGPSVFLFPPKPKDTLMISRTPEVTCVVVDVSQEDPEVQFNWYVDGVEVHNAKTKPREEQFNSTYRVVSVLTVLHQDWLNGKEYKCKVSNKGLPSSIEKTISKAKGQPREPQVYTLPPCQEEMTKNQVSLWCLVKGFYPSDIAVEWESNGQPENNYKTTPPVLDSDGSFFLYSRLTVDKSRWQEGNVFSCSVMHEALHNHYTQKSLSLSLGK
# chain 2: EVQLLESGGGLVQPGGSLRLSCAASGFTFGNYDMAWVRQAPGKRPEWVSSIDTGGDITHYADSVKGRFTISRDNAKNTLYLQMNSLRPEDTAVYWCATDEEYALGPNEFDYYGQGTLVTVSSGGGGSGGGGSGPPCPPCPAPEFLGGPSVFLFPPKPKDTLMISRTPEVTCVVVDVSQEDPEVQFNWYVDGVEVHNAKTKPREEQFNSTYRVVSVLTVLHQDWLNGKEYKCKVSNKGLPSSIEKTISKAKGQPREPQVCTLPPSQEEMTKNQVSLSCAVKGFYPSDIAVEWESNGQPENNYKTTPPVLDSDGSFFLVSRLTVDKSRWQEGNVFSCSVMHEALHNHYTQKSLSLSLGK
# B7: NIgG4E1A1(G4S)1 (Fc fusion)
# chain 1: DVQLQESGGGLVQAGGSLRLSCLASGRTFTTTSGYNMGWFRQAPGKEREFVAGIKWVSGSNRAYAESVKGRFTISRDNAKNTVYLQMNSLKPEDTAVYYCAAATGQSYVPIREYEYVYWGQGTQVTVSGGGGSGPPCPPCPAPEFLGGPSVFLFPPKPKDTLMISRTPEVTCVVVDVSQEDPEVQFNWYVDGVEVHNAKTKPREEQFNSTYRVVSVLTVLHQDWLNGKEYKCKVSNKGLPSSIEKTISKAKGQPREPQVYTLPPCQEEMTKNQVSLWCLVKGFYPSDIAVEWESNGQPENNYKTTPPVLDSDGSFFLYSRLTVDKSRWQEGNVFSCSVMHEALHNHYTQKSLSLSLGK
# chain 2: EVQLLESGGGLVQPGGSLRLSCAASGFTFGNYDMAWVRQAPGKRPEWVSSIDTGGDITHYADSVKGRFTISRDNAKNTLYLQMNSLRPEDTAVYWCATDEEYALGPNEFDYYGQGTLVTVSSGGGGSGPPCPPCPAPEFLGGPSVFLFPPKPKDTLMISRTPEVTCVVVDVSQEDPEVQFNWYVDGVEVHNAKTKPREEQFNSTYRVVSVLTVLHQDWLNGKEYKCKVSNKGLPSSIEKTISKAKGQPREPQVCTLPPSQEEMTKNQVSLSCAVKGFYPSDIAVEWESNGQPENNYKTTPPVLDSDGSFFLVSRLTVDKSRWQEGNVFSCSVMHEALHNHYTQKSLSLSLGK
# B8: NIgG4E1A1(RS) (Fc fusion)
# chain 1: DVQLQESGGGLVQAGGSLRLSCLASGRTFTTTSGYNMGWFRQAPGKEREFVAGIKWVSGSNRAYAESVKGRFTISRDNAKNTVYLQMNSLKPEDTAVYYCAAATGQSYVPIREYEYVYWGQGTQVTVSRSGPPCPPCPAPEFLGGPSVFLFPPKPKDTLMISRTPEVTCVVVDVSQEDPEVQFNWYVDGVEVHNAKTKPREEQFNSTYRVVSVLTVLHQDWLNGKEYKCKVSNKGLPSSIEKTISKAKGQPREPQVYTLPPCQEEMTKNQVSLWCLVKGFYPSDIAVEWESNGQPENNYKTTPPVLDSDGSFFLYSRLTVDKSRWQEGNVFSCSVMHEALHNHYTQKSLSLSLGK
# chain 2: EVQLLESGGGLVQPGGSLRLSCAASGFTFGNYDMAWVRQAPGKRPEWVSSIDTGGDITHYADSVKGRFTISRDNAKNTLYLQMNSLRPEDTAVYWCATDEEYALGPNEFDYYGQGTLVTVSSRSGPPCPPCPAPEFLGGPSVFLFPPKPKDTLMISRTPEVTCVVVDVSQEDPEVQFNWYVDGVEVHNAKTKPREEQFNSTYRVVSVLTVLHQDWLNGKEYKCKVSNKGLPSSIEKTISKAKGQPREPQVCTLPPSQEEMTKNQVSLSCAVKGFYPSDIAVEWESNGQPENNYKTTPPVLDSDGSFFLVSRLTVDKSRWQEGNVFSCSVMHEALHNHYTQKSLSLSLGK
# Molecular target: mixture of three Der p 2 specific recombinant human IgE clones H10, H12, P4E (human) (UniProt P01854)
# Sequence (P01854 other isoform, or with tags, fused parts or gaps): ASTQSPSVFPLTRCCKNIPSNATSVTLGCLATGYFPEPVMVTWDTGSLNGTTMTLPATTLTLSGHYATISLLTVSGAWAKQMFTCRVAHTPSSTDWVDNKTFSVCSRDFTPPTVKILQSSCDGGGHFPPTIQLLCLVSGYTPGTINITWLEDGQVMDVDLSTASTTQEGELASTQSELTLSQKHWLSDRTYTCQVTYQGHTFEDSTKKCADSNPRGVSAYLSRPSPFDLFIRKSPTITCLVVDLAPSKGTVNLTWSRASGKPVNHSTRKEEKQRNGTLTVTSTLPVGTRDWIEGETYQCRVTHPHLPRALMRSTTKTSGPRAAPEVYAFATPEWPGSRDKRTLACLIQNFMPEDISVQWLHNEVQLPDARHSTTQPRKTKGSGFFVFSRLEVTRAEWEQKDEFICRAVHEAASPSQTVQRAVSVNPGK
# Test: RBL-SX38 IgE displacement, FACS
Binder,EC50,Max effect/effect 1 µM
B1,3.7 nM,98%
B2,126 nM,95%
B3,,9%
B4,39 nM,99%
B5,28.8 nM,99%
B6,4.8 nM,94%
B7,7.1 nM,96%
B8,8.7 nM,97%

# From patent US20250171562A1
